Experimental data from patent US20220073963A1, “COMPOSITIONS AND METHODS FOR DETECTING AND TREATING TYPE 1 DIABETES AND OTHER AUTOIMMUNE DISEASES” (THE JOHNS HOPKINS UNIVERSITY, priority 2018, published 2022).
No end group written: not given here.

How the values were obtained:
[1] = system: CD4 T cells; test: CFSE proliferation assay with soluble peptides; format: cell-based, human; settings: soluble peptide, PBMCs from T1D and HC subjects, 7 days
Method: FIG. 14A-14B. […] Freshly isolated CFSE-labelled PBMCs from T1D and HC subjects were cultured in the presence or absence of indicated peptides for 7 days. Samples were stained, acquired and analyzed by FlowJo. CD4 T cells were gated and percentage of divided (CFSElow T cells) were determined. […] All peptides induced significant proliferation from diabetogenic subjects compared to HCs. n=4 per subject group, *p<0.05 by Two-way ANOVA with Sidak's multiple comparisons test. […] (FIG. 14B) Overlays show upregulation of CD69 by gated CFSElow T cells (red lines) versus […] non-proliferating (green) CD4 T cells from three subjects and three independent experiments. Numbers indicate percentages (Mean±SEM) of CFSElow CD4 T cells. CFSE proliferation assay. Freshly isolated PBMCs were washed twice with warm (37° C.) 1×PBS to remove serum that affect staining and the cells were resuspended in warm (37° C.) 1×PBS at a density of 1.5-2.0×10^6 cells/ml. Cells were labeled with 1 μM CFSE (eBioscience) for 1-2 min at 37° C. with continuous vortexing. The labeling reaction was quenched by adding chilled complete culture media. […] After 7 days of incubation, cultures were stained as indicated in FIG. legends and proliferation assessed by determining frequency of CFSElow CD4 T cells.

[2] = system: HLA-DQ8 monomers; test: Gentle SDS-PAGE assay of peptide binding to DQ8; parameters: species or system human; settings: 100 μM peptide, 0.5 μM HLA-DQ8 monomers, 37° C., 72 h, pH 5.5
Method: Analysis of x-Id peptide binding to DQ8 using gentle SDS-PAGE assay. Gentle SDS-PAGE was used to assess formation of stable complexes between peptides and HLA-DQ8 molecules as previously described (Kim et al., 2013; Sadegh-Nasseri and Germain, 1991). Briefly, 0.5 μM of HLA-DQ8 monomers (provided by NIH tetramer core facility) were treated with thrombin to cleave and remove CLIP peptide. […] Reactions were neutralized, mixed with equal volumes of SDS-PAGE sample buffer containing 0.1% SDS (final concentration) and placed for 15 min at room temperature and run on 10% PAGE gels and silver-stained using a standard protocol.

[3] = system: CD4 T cells; test: CFSE proliferation assay with immobilized peptide-loaded DQ8 complexes; format: cell-based, human; settings: PBMCs from DQ8+ T1D subjects, 7 days
Method: CFSE proliferation assay. Freshly isolated PBMCs were washed twice with warm (37° C.) 1×PBS to remove serum that affect staining and the cells were resuspended in warm (37° C.) 1×PBS at a density of 1.5-2.0×10^6 cells/ml. Cells were labeled with 1 μM CFSE (eBioscience) for 1-2 min at 37° C. with continuous vortexing. The labeling reaction was quenched by adding chilled complete culture media. CFSE-labeled cells were washed in 1×PBS, resuspended in complete media, and plated into 24-well tissue culture plates (1.5-2.0×10^6 cells/well in 1 mL complete culture medium). […] Alternatively, in a separate experiment, to evaluate the mAb-specific proliferative response, purified mAbR and mAbN (described later in the method) concentration of 2.5 and 5 ug, immobilized into the wells of 24-well plates, and used to stimulate CFSE-labeled PBMCs. CFSE labelled cells without stimulation and with CD3-28 stimulation were taken as specific negative and positive controls respectively. After 7 days of incubation, cultures were stained as indicated in FIG. legends and proliferation assessed by determining frequency of CFSElow CD4 T cells.

[4] = target: CD4 T cells from T1D subjects (antigen receptors not identified); test: flow cytometry, tetramer staining of CD4 T cells; mimotope-stimulated cultures, AB BLOCKADE (cells preincubated with x-mAbR)
[5] = target: CD4 T cells from T1D subjects (antigen receptors not identified); test: flow cytometry, tetramer staining of CD4 T cells; x-Id-stimulated cultures, AB BLOCKADE (cells preincubated with x-mAbR)
[6] = target: CD4 T cells from T1D subjects (antigen receptors not identified); test: flow cytometry, tetramer staining of CD4 T cells; unstimulated cultures
[7] = target: CD4 T cells from T1D subjects (antigen receptors not identified); test: flow cytometry, tetramer staining of CD4 T cells; x-Id-stimulated cultures, NO AB
[8] = target: CD4 T cells from T1D subjects (antigen receptors not identified); test: flow cytometry, tetramer staining of CD4 T cells; mimotope-stimulated cultures, NO AB
[9] = Wang et al., 2018; cited from earlier work

CARQEDTAMVYYFDYW (listed as Homo sapiens) [x-Id]
proliferation of CD4 T cells (CFSElow) [1]: stimulates CD4 T cells from T1D, but not HC, subjects
formation of SDS-stable complexes with soluble DQ8 [2]: forming SDS-stable complexes

CARQRFWSGPLFDYW [h-Id, CDR3 peptide of the IGVH04-b+ IgD+ clonotype from HC #1]
proliferation of CD4 T cells (CFSElow) [1]: did not elicit proliferation of CD4 T cells from either T1D or HCs
stimulation of CD4 T cells (CFSE proliferation and CD69 upregulation) [3]: no significant responses
formation of SDS-stable complexes with soluble DQ8 [2]: did not form detectable DQ8 complexes

CLIP-TET (peptide-MHC)
tetramer+ among CD4 T cells [4]: 0.08%
tetramer+ among CD4 T cells [5]: 0.08%
tetramer+ among CD4 T cells [6]: 0.07%
tetramer+ among CD4 T cells [7]: 0.1%
tetramer+ among CD4 T cells [8]: 0.09%

SHLVEALYLVCGERG (listed as Homo sapiens) [native insulin]
stimulation of CD4 T cells (CFSE proliferation and CD69 upregulation) [3]: no significant responses
formation of SDS-stable complexes with soluble DQ8 [2]: did not form detectable DQ8 complexes

SHLVEELYLVAGEEG (listed as Homo sapiens) [superagonist]
potency relative to native insulin B:9-23 [9]: about 1000 fold

TP-Id: truncated version of x-Id that lacked cysteine and tryptophan at the terminals (ARQEDTAMVYYFDY)
formation of SDS-stable complexes with soluble DQ8 [2]: forming SDS-stable complexes

CARQEDTAMVYYFDYW (peptide-MHC, part only; not given: HLA-DQ8 alpha and beta chains, human, part only, also: loaded in biotinylated HLA-DQ8 monomers tetramerized with PE-streptavidin) [HLA-DQ8 tetramer loaded with x-Id peptide]
tetramer+ among CD4 T cells [4]: 0.36%
tetramer+ among CD4 T cells [5]: 0.35%
tetramer+ among CD4 T cells [6]: 0.56%
tetramer+ among CD4 T cells [7]: 1.03%
tetramer+ among CD4 T cells [8]: 1.07%
